Our source for the Kd values is patent publication US20260356929 (published 2026).

As a reminder, the Kd is the free concentration of one partner at which half of the binding sites on the other are occupied at equilibrium, for simple one-to-one binding.

The labels stand for the following.
T1: human VEGF-A165b (human, UniProt P15692)
T1 chain: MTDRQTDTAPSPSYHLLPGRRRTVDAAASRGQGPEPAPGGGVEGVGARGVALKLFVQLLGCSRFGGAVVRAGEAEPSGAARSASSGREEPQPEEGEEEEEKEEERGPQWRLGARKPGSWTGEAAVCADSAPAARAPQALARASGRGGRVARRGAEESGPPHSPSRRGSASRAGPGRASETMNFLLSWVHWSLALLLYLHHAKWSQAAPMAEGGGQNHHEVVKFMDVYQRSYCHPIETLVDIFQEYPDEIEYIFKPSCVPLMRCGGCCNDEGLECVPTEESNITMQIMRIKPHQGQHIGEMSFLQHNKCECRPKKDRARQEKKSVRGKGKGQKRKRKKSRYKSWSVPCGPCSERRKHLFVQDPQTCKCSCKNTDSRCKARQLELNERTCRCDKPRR

B1: HC0 LC0 (chimeric Ab 1126) (antibody, V domains shown)
VH: EVKLLESGGGLVQPGGSLKLSCAASGFDFSRYWMSWVRQAPGKGLEWIGEIHPYSSTINYTPSVKDKFIISRDNAKNTLYLQMSEVRSEDTALYYCARAFAYWGQGTLVTVSA
VL: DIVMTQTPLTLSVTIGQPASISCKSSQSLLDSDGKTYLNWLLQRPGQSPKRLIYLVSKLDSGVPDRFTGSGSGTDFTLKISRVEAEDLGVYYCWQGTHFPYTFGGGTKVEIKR
B2: HC3 LC1 (antibody, V domains shown)
VH: EVQLVESGGGLVQPGGSLRLSCAASGFDFSRYWMSWVRQAPGKGLEWISEIHPYSSTINYTPSVKDRFTISRDNAKNSLYLQMNSLRDEDTALYYCARAFAYWGQGTLVTVSS
VL: DVVMTQSPLSLPVTLGQPASISCKSSQSLLDSDGKTYLNWFQQRPGQSPRRLIYLVSKLDSGVPDRFSGSGSGTDFTLKISRVEAEDVGVYYCWQGTHFPYTFGGGTKVEIKR
B3: HC5 LC2 (antibody, V domains shown)
VH: EVQLVESGGGLVQPGGSLRLSCAASGFDFSRYWMSWVRQAPGKGLEWVSEIHPYSSTINYTPSVKDRFTISRDNAKNSLYLQMNSLRAEDTAVYYCARAFAYWGQGTLVTVSA
VL: DVVMTQSPLSLPVTLGQPASISCRSSQSLLDSDGKTYLNWELQRPGQSPRRLIYLVSKLDSGVPDRFSGSGSGTDFTLKISRVEAEDVGVYYCWQGTHFPYTFGQGTKVEIKR
B4: HC1 LC1 (antibody, V domains shown)
VH: EVQLLESGGGLVKPGGSLRLSCAASGFDFSRYWMSWIRQAPGKGLEWVSEIHPYSSTINYTPSVKDRFTISRDNAKNSLYLQMNSLRAEDTAVYYCARAFAYWGQGTLVTVSS
VL: DVVMTQSPLSLPVTLGQPASISCKSSQSLLDSDGKTYLNWFQQRPGQSPRRLIYLVSKLDSGVPDRFSGSGSGTDFTLKISRVEAEDVGVYYCWQGTHFPYTFGGGTKVEIKR
B5: HC2 LC1 (antibody, V domains shown)
VH: EVQLVESGGGLVQPGGSLRLSCAASGFDFSRYWMSWVRQAPGKGLEWVAEIHPYSSTINYTPSVKDRFIISRDNAKNSVYLQLNSLRAEDTAVYYCARAFAYWGQGTLVTVSS
VL: DVVMTQSPLSLPVTLGQPASISCKSSQSLLDSDGKTYLNWFQQRPGQSPRRLIYLVSKLDSGVPDRFSGSGSGTDFTLKISRVEAEDVGVYYCWQGTHFPYTFGGGTKVEIKR
B6: HC2 LC2 (antibody, V domains shown)
VH: EVQLVESGGGLVQPGGSLRLSCAASGFDFSRYWMSWVRQAPGKGLEWVAEIHPYSSTINYTPSVKDRFIISRDNAKNSVYLQLNSLRAEDTAVYYCARAFAYWGQGTLVTVSS
VL: DVVMTQSPLSLPVTLGQPASISCRSSQSLLDSDGKTYLNWELQRPGQSPRRLIYLVSKLDSGVPDRFSGSGSGTDFTLKISRVEAEDVGVYYCWQGTHFPYTFGQGTKVEIKR
B7: HC4 LC1 (antibody, V domains shown)
VH: EVQLVESGGGLVQPGGSLRLSCAASGFDFSRYWMSWVRQAPGKGLEWVAEIHPYSSTINYTPSVKDRFTISRDNAKNSLYLQMNSLRSEDTAVYYCARAFAYWGQGTLVTVSS
VL: DVVMTQSPLSLPVTLGQPASISCKSSQSLLDSDGKTYLNWFQQRPGQSPRRLIYLVSKLDSGVPDRFSGSGSGTDFTLKISRVEAEDVGVYYCWQGTHFPYTFGGGTKVEIKR
B8: HC1 LC2 (antibody, V domains shown)
VH: EVQLLESGGGLVKPGGSLRLSCAASGFDFSRYWMSWIRQAPGKGLEWVSEIHPYSSTINYTPSVKDRFTISRDNAKNSLYLQMNSLRAEDTAVYYCARAFAYWGQGTLVTVSS
VL: DVVMTQSPLSLPVTLGQPASISCRSSQSLLDSDGKTYLNWELQRPGQSPRRLIYLVSKLDSGVPDRFSGSGSGTDFTLKISRVEAEDVGVYYCWQGTHFPYTFGQGTKVEIKR
B9: HC4 LC2 (Vexobicizumab) (antibody, V domains shown)
VH: EVQLVESGGGLVQPGGSLRLSCAASGFDFSRYWMSWVRQAPGKGLEWVAEIHPYSSTINYTPSVKDRFTISRDNAKNSLYLQMNSLRSEDTAVYYCARAFAYWGQGTLVTVSS
VL: DVVMTQSPLSLPVTLGQPASISCRSSQSLLDSDGKTYLNWELQRPGQSPRRLIYLVSKLDSGVPDRFSGSGSGTDFTLKISRVEAEDVGVYYCWQGTHFPYTFGQGTKVEIKR
B10: HC3 LC2 (antibody, V domains shown)
VH: EVQLVESGGGLVQPGGSLRLSCAASGFDFSRYWMSWVRQAPGKGLEWISEIHPYSSTINYTPSVKDRFTISRDNAKNSLYLQMNSLRDEDTALYYCARAFAYWGQGTLVTVSS
VL: DVVMTQSPLSLPVTLGQPASISCRSSQSLLDSDGKTYLNWELQRPGQSPRRLIYLVSKLDSGVPDRFSGSGSGTDFTLKISRVEAEDVGVYYCWQGTHFPYTFGQGTKVEIKR
B11: HC5 LC1 (antibody, V domains shown)
VH: EVQLVESGGGLVQPGGSLRLSCAASGFDFSRYWMSWVRQAPGKGLEWVSEIHPYSSTINYTPSVKDRFTISRDNAKNSLYLQMNSLRAEDTAVYYCARAFAYWGQGTLVTVSA
VL: DVVMTQSPLSLPVTLGQPASISCKSSQSLLDSDGKTYLNWFQQRPGQSPRRLIYLVSKLDSGVPDRFSGSGSGTDFTLKISRVEAEDVGVYYCWQGTHFPYTFGGGTKVEIKR

The assay deals with T1, human VEGF-A165b. Nature of the assay: BLI 25C.
Regarding B1, binding was characterised by a dissociation constant (Kd) of 0.3 nM. This lies in the sub-nanomolar range.

For the molecule B2, the Kd stood at 1.5 nM.

The molecule B3 showed a Kd of 0.6 nM.

In turn, B4 returned a Kd of 5 nM.

Consider B5, for which the Kd came to 4.4 nM. This Kd and that of the molecule before are within 1.5-fold of each other.

As for B6, the Kd turned out to be 3.6 nM. The Kd values of the last two molecules are within 1.5-fold of each other.

With B7, the Kd is 0.9 nM.

Molecule B8 registered a Kd of 2.1 nM.

The molecule B9 registered a Kd of 0.6 nM.

Take B10: the affinity, expressed as Kd, was 1.17 nM.

On to B11, for which the affinity, expressed as Kd, was 3.2 nM.
